According to the DeepSol protein solubility set:

Experiment: soluble on expression in E. coli; label from the status in PepcDB or PDB records

Sequence	soluble on expression in E. coli
MEKQWWKESVVYQIYPRSFMDSNGDGIGDLRGIISKLDYLKELGIDVIWLSPVYESPNDDNGYDISDYCKIMNEFGTMEDWDELLHEMHERNMKLMMDLVVNHTSDEHNWFIESRKSKDNKYRDYYIWRPGKEGKEPNNWGAAFSGSAWQYDEMTDEYYLHLFSKKQPDLNWDNEKVRQDVYEMMKFWLEKGIDGFRMDVINFISKEEGLPTVETEEEGYVSGHKHFMNGPNIHKYLHEMNEEVLSHYDIMTVGEMPGVTTEEAKLYTGEERKELQMVFQFEHMDLDSGEGGKWDVKPCSLLTLKENLTKWQKALEHTGWNSLYWNNHDQPRVVSRFGNDGMYRIESAKMLATVLHMMKGTPYIYQGEEIGMTNVRFESIDEYRDIETLNMYKEKVMERGEDIEKVMQSIYIKGRDNARTPMQWDDQNHAGFTTGEPWITVNPNYKEINVKQAIQNKDSIFYYYKKLIELRKNNEIVVYGSYDLILENNPSIFAYVRTYGVEKLLVIANFTAEECIFELPEDISYSEVELLIHNYDVENGPIENITLRPYEAMVFKLK	soluble
MEKVLDLDVQVKANNNSNDSAGDERITSHSLCTPGCAKTGSFNSFCC	not soluble
MELFKDIKNLGKLVRLERIFNRESEKTVIVPMDHGVSNGPIKGLIDIRKTVNDVAEGGANAVLLHKGIVRHGHRGYGKDVGLIIHLSGGTAISPNPLKKVIVTTVEEAIRMGADAVSIHVNVGSDEDWEAYRDLGMIAETCEYWGMPLIAMMYPRGKHIQNERDPELVAHAARLGAELGADIVKTSYTGDIDSFRDVVKGCPAPVVVAGGPKTNTDEEFLQMIKDAMEAGAAGVAVGRNIFQHDDVVGITRAVCKIVHENADVEEALKEIRKK	soluble
MELFLAGRRVLVTGAGKGIGRGTVQALHATGARVVAVSRTQADLDSLVRECPGIEPVCVDLGDWEATERALGSVGPVDLLVNNAAVALLQPFLEVTKEAFDRSFEVNLRAVIQVSQIVARGLIARGVPGAIVNVSSQCSQRAVTNHSVYCSTKGALDMLTKVMALELGPHKIRVNAVNPTVVMTSMGQATWSDPHKAKTMLNRIPLGKFAEVEHVVNAILFLLSDRSGMTTGSTLPVEGGFWAC	soluble
MELIDKFITLHDQLRKDLNLASLCISKAKTTHGIGLFSVNSVDTHDLEPSIRLDTKNGKFVLLKNSENEEEKNDKKNKKKKDENKSEKKNSGESEDVEEAKKTFSGQFRPFGVLEPAAAKDARKIYRNSIQTILDLVSTQQSILAKSRQLVEDC	not soluble
MELPRAFGLLLHPTSLPGPYGVGVLGREARDFLRFLKEAGGRYWQVLPLGPTGYGDSPYQSFSAFAGNPYLIDLRPLAERGYVRLEDPGFPQGRVDYGLLYAWKWPALKEAFRGFKEKASPEEREAFAAFREREAWWLEDYALFMALKGAHGGLPWNRWPLPLRKREEKALREAKSALAEEVAFHAFTQWLFFRQWGALKAEAEALGIRIIGDMPIFVAEDSAEVWAHPEWFHLDEEGRPTVVAGVPPDYFSETGQRWGNPLYRWDVLEREGFSFWIRRLEKALELFHLVRIDHFRGFEAYWEIPASCPTAVEGRWVKAPGEKLFQKIQEVFGEVPVLAEDLGVITPEVEALRDRFGLPGMKVLQFAFDDGMENPFLPHNYPAHGRVVVYTGTHDNDTTLGWYRTATPHEKAFMARYLADWGITFREEEEVPWALMHLGMKSVARLAVYPVQDVLALGSEARMNYPGRPSGNWAWRLLPGELSPEHGARLRAMAEATERL	soluble
MELRDRIDFLCKTILAIKTAGRLVLGIDGLSRSGKTTLANQLSQTLREQGISVCVFHMDDHIVERAKRYHTGNEEWFEYYYLQWDVEWLTHQLFRQLKASHQLTLPFYDHETDTHSKRTVYLSDSDMIMIEGVFLQRKEWRPFFDFVVYLDCPREIRFARENDQVKQNIQKFINRYWKAEDYYLETEEPIKRADVVFDMTS	soluble
MELRELFEVQGELDAHIEKIHPRKEGEKRLEEKILALQTELGEIANEWRQFKFWSNDREPRTERLLEEYVDGFHFVLSIGLEESKRYGQSVPIRLGLPDELTSICYETTIQQFNYLFSEIGRLYDSVTLHEVAADTEVEEAYENIIRMFIGLGEKLGFTEKEIAEGYMRKNMINHERQKNGY	not soluble
MELRNTKLEQLFYIYHRNLKYRCPMQYLTKRGFNLQDLLSVGGGLAYLGEKQWLNLSLYNFNNQLVGFLSRKVGFEKKFLYLPINKPPSKSESFLGLKHLPTET	not soluble
MELTIMSQLIDRRQNAGKKSTVNRQRFLRRYKSQIKKAVSEAVGKRSITEIDQGEQITIPAKDIYEPQFHRGHGGHIERVLPGNDNFIAGDRIKRPGGGGAGGAGGNASDSGEGEDNFVFELSREEFLELYFEDLELPDLVKKELARISTYKTVRAGVTTSGIPNNINVLRSMKQATGRRVALASPYKKRLKEAEEELERLKQLANPDKIDLLKLERDIEFFKKKIQTVPFIDTIDLRYNHRVRVPSPSTQAVMFCVMDVSGSMDEAKKDIAKRFFILLYMFLTKNYEKIELVFIRHHTSAKEVNEEEFFYSRETGGTVVSSALELLNTIIEARYPPQAWNIYVAQASDGDNWNADSPYCQELLQEKIMPLLQYFAYIEIMPRHHQSLWEVYQQVKERYPNFAMENIDNVADIYPVFRELFKRKTVAAALEHHHHHH	not soluble
MEMVKSRSKVAIIGAGFVGASAAFTMALRQTANELVLIDVFKEKAIGEAMDINHGLPFMGQMSLYAGDYSDVKDCDVIVVTAGANRKPGETRLDLAKKNVMIAKEVTQNIMKYYNHGVILVVSNPVDIITYMIQKWSGLPVGKVIGSGTVLDSIRFRYLLSEKLGVDVKNVHGYIIGEHGDSQLPLWSCTHIAGKNINEYIDDPKCNFTEEDKKKIAEDVKTAGATIIKNKGATYYGIAVSINTIVETLLKNQNTIRTVGTVINGMYGIEDVAISLPSIVNSEGVQEVLQFNLTPEEEEALRFSAEQVKKVLNEVKNL	soluble
MENFQPHKQCGYGVIMRLTSKGRYAVTAMLDVALHSQQNPVPLADISERQGISLSYLEQLFSKLRKAGLVASVRGPGGGYRLGMDSYAISIGTVIAAVDESVDATKCNGKGDCQGGTRCLTHTLWRDLSSRITDFLNNITLGELMMDNEVLEVSDRQDLHLAVSQRVSQNNSNTVTIGAAPFGINVRS	not soluble
MENILEVNQIKKYYKIKTGLLQKTQYVKAVDDVSFSIKKGQTFGLVGESGCGKSTLGKVIIRLEDATSGSIIVNGEDITRLQGKKLRKSRQQYQMIFQDPYASLNPMQMVGDIISEPILNYKKLPKEEIKKEVLYLLKCVGLSEDAYYKYAHEFSGGQRQRVGIARALALRPSLIVADEPVSALDVSVQSQVLNLLKDLQEQFNLSYLFIAHDLSVVKHISDVIGVMYLGHIVEIASDKEIYENPKHPYTKALISSIPQIDKHNNNRIILKGELPSPSNPPQGCPFHTRCPIAQDMCKKSMPELKDIGNEHQVACFYVDKVGDLND	not soluble
MENKMVEYRKKFGLSQEKLAEKLGVSRQTIISIEKGKYDPSLPLAFEIAKTFQTTIEHVFIYEGKEGEE	not soluble
MENLTVTGLVRLIGAGATMIYVVTDNERRTEQIATQAAARLKGAGSPYVWTCTEGFSRDGAVVEGIDDPVAAVGFALAQPGPLLFLFKDLPWFWGDNPYLIRALKDFAMRAKAKAIVVLGQQEGIPAALREEFVILQQGLPAMEEIKAFFEQARARDPQLAQACQERPGLLNDLVVAAQGLDLLDVERGMRGARAAGEAGGEGLVRSIFETKRAIIRTGGIMEFVANDVTPDQVGGMENLKQWMARREQAFGLEGISSGANLPKGVLMMGIAGCGKSLFVKAIAATWRLPLIRLDMAAVYDGSYGTPESSLRKAFRTAEAVAPCVLWIDEIEAGISTQGFKAEGGPASRILGSFLTWMQEKRAPVFVAATANAIEMLPAEIIRKGRFDEIFYIGLPETKGREEIFRIHLTRRKIGLSAFDVPLLAGSTKGFSGAEIEQAVQAAAFEALTGKRPMTQQDLMAAISRTVPLSVTMAEQIKKIEAWAFKRAVPA	soluble
MENPHEQVQANILSRIIGNVKRLNESVAILNQELVTINNRNKNLEIMGAICDNYHSSVQFNLEATNNKKPPL	not soluble
MENTNEAAWILSIDKFRHNEGIINFSDQNRETAYHHTIKEINVALDNFSTKAGDNNMHLVKAKTSQGTELNWHGKFSLSPLKSSGDISFVSPLKIVSDYLQQRILFNITEGSLKVNSHYDFNFAGEQPQFIINNLMASISALEIRSRDDNKKIITSDELSVDLEQLSSLEHHHHHH	not soluble
MENTVDAKKDSTIAFTGGRILTMDSEQKYAEAVVIRGDRIAAVGGTYILKSFPDAEIRDLKNRYLLPAFIDSHNHLSSFGCFFPTWANLIGLTEKEAILKAIRRQVRKEPGTGWIVGFGWFDARMGGADLTKKDLDEVSSDRPVLLIQTTFHQSVVNTRALGLLGINQSTPDPRCGIIFRESDGTPTGVLVEYAQAPVFKLVMEADTETLADLIEARAKELLQFGITAIHDPGATPAAEAAYRQLHAEGRLPVSVLMMPHGETLLDNRLRDRLQGQVTGTGDERLRVGPIKLFADGATAETVAFSLKIGGQTINSGCYRDDFEEMLFAATEKGFRVCVHSFGNATTDAVLTAFENAALRAPAGFEMRPRLEHVTLINALQIRRLASMGGCACIQPQFLSRAQNTKQVMLEDGKWYAYGDLVKGGVIVASSSDDPGGFMDARDPIKGSVMGSTMSDGEGNVIFPDQVLPFEQWLWMYTAGGAYAGGQEKERGILKKGMVADLVILEGSLDSKNPTVVAETWAAGKQVYTKELEHHHHHH	not soluble
MEQATQQIAISDAAQAHFRKLLDTQEEGTHIRIFVVNPGTPNAECGVSYCPPNAVEESDIEMKYNTFSAFIDEVSLPFLEEAEIDYVTEELGAQLTLKAPNAKMRKVADDAPLIERVEYVIQTQINPQLANHGGRITLIEITEDGYAVLQFGGGCNGCSMVDVTLKDGVEKQLVSLFPNELKGAKDITEHQRGEHSYYLEHHHHHH	soluble
MEQDTQHVKPLQTKTDIHAVLASNGRIIYISANSKLHLGYLQGEMIGSFLKTFLHEEDQFLVESYFYNEHHLMPCTFRFIKKDHTIVWVEAAVEIVTTRAERTEREIILKMKVLEEETGHQSLNCEKHEIEPASPESTTYITDDYERLVENLPSPLCISVKGKIVYVNSAMLSMLGAKSKDAIIGKSSYEFIEEEYHDIVKNRIIRMQKGMEVGMIEQTWKRLDGTPVHLEVKASPTVYKNQQAELLLLIDISSRKKFQTILQKSRERYQLLIQNSIDTIAVIHNGKWVFMNESGISLFEAATYEDLIGKNIYDQLHPCDHEDVKERIQNIAEQKTESEIVKQSWFTFQNRVIYTEMVCIPTTFFGEAAVQVILRDISERKQTEELMLKSEKLSIAGQLAAGIAHEIRNPLTAIKGFLQLMKPTMEGNEHYFDIVFSELSRIELILSELLMLAKPQQNAVKEYLNLKKLIGEVSALLETQANLNGIFIRTSYEKDSIYINGDQNQLKQVFINLIKNAVESMPDGGTVDIIITEDEHSVHVTVKDEGEGIPEKVLNRIGEPFLTTKEKGTGLGLMVTFNIIENHQGVIHVDSHPEKGTAFKISFPKK	not soluble
MEQFLDNIKDLEVTTVVRAQEALDKKETATFFIGRKTCPYCRKFAGTLSGVVAETKAHIYFINSEEPSQLNDLQAFRSRYGIPTVPGFVHITDGQINVRCDSSMSAQEIKDFAGL	soluble
MEQINEKNFNFYNRIGLDTFQALAKDGGFSTFVDLEIAYRYIQPTENIAEIGAGYGRCIDFLLAKKHQGKIIAVEQSPKLCEHLRAVYSSTIKIVEGDIYKVSFDHQIDAALWMWSGMIDFSVEEQAAVIKHIHELLTQKGKLFIDIPRIGIKTIADHIDQQRIKLTTDFGEIECYIPLSSEVKEYADAAGFTRVDEINYETATDKKRTMYILMK	not soluble
